Experimental data as given in patent US20190062427A1 (Alector, published 2019).

Columns and labels:
[1] = target: T1, human Siglec-9 expressed on human cells (human, UniProt Q9Y336 18-463); assay: cell-based or functional assay
[2] = target: T1, human Siglec-9 expressed on human cells; assay: cell-based or functional assay; remark: listed apart in the source
[3] = target: T1, human Siglec-9 expressed on human cells; assay: flow cytometry on human primary monocytes, 10 ug/ml mAb, PE secondary
Procedure: (§1) Initial characterization of Siglec-9 antibodies involved determining their ability to bind Siglec-9 expressed on human primary monocytes, human primary macrophages, human primary dendritic cells, human primary neutrophils, and human primary natural killer (NK) cells. Cells were harvested, plated at 10⁶/ml in a 96 well plate, and incubated in 100ul PBS containing 2% FBS, 2 mM EDTA and 10 μg/ml Mab and Fc blocking reagent for 1 hour in ice. Cells were washed twice and incubated in 100ul PBS containing 2% FBS, 2 mM EDTA and 5 μg/ml PE-conjugated secondary antibody for 30 minutes on ice. Cells were washed twice in cold PBS and analyze by flow cytometry on a BD FACS Canto. Data analysis and calculation of MFI values was performed with FlowJo (TreeStar) software version 10.0.7.
(§2) Binding is compared to an isotype control. […] In Table 5, “Buffer” refers to cells that were treated only with the PBS buffer described supra; “Secondary Ab” refers to cells that were treated only with the PE-conjugated secondary antibody; and “mIgG1,” “mIgG2a,” and “mIgG2b” refer to isotype control antibodies.

[4] = target: T1, human Siglec-9 expressed on human cells; assay: flow cytometry on human primary macrophages, 10 ug/ml mAb, PE secondary
Procedure: as §1, §2

[5] = target: T1, human Siglec-9 expressed on human cells; assay: flow cytometry on human primary dendritic cells, 10 ug/ml mAb, PE secondary
Procedure: as §1, §2

[6] = target: T2, Histidine-tagged human Siglec-9 (NovoProtein) (human, UniProt Q9Y336 18-348); assay: SPR Biacore T200, 25 C, 25 nM mAb captured on anti-mouse IgG CM5 chip, His-tagged Siglec-9 100 nM as analyte, single-concentration 1:1 fit
T2 construct: Bought protein; also called Siglec-9-his tagged protein; His-tagged Siglec 9 antigen; not shown: histidine tag
Procedure: Affinity constants (KD) were calculated from the ratio kd/kₐ.

[7] = target: T3, Siglec-9-Fc (R&D Systems, catalog number 1139-SL-050) (human, UniProt Q9Y336 18-348); assay: FACS ligand competition: 25 ug/ml mAb pre-coupled with 25 ug/ml Siglec-9-Fc, binding to sialic acid ligands on U937 cells, anti-human IgG-PE
T3 construct: Bought fusion protein; also called Siglec-9-Fc fusion protein; not shown: human IgG1 Fc
Procedure: To determine whether Siglec-9 antibodies block binding to sialic acid ligands, U937 cells, which robustly express sialic acid ligands that predominantly bind to Siglec-9, were utilized in a FACS-based protocol. Briefly, 25 μg/ml Siglec-9 antibodies were pre-coupled with 25 μg/ml Siglec-9-Fc (R&D Systems, catalog number 1139-SL-050) for 20 minutes on ice in binding buffer (PBS with 0.25% BSA and 1 mM CaCl₂) in 96-well round bottom plates. […] Cells were pelleted and resuspended in goat anti-human IgG-PE (SouthernBiotech catalog number 2040-09) secondary antibody at 1:2000 dilution in binding buffer for 30 minutes. Cells were then washed three times and analyzed by flow cytometry on a BD FACS Canto. Data were analyzed on FlowJo version 10.0.6 (TreeStar).

[8] = target: T2, Histidine-tagged human Siglec-9 …; assay: BLI ForteBio Octet RED96, mAb on AMC tips, His-tagged Siglec-9 3.13-50 nM; average of two assays
Procedure: (§3) Antibodies were captured on anti-mouse IgG Fc capture (AMC) biosensor tips, after which a baseline was run for 60 seconds. A 15 minute association step was performed in a dilution series of His-tagged Siglec 9 antigen, ranging from 3.13 nM to 50 nM, after which dissociation was measured over 60 minutes. Affinity constants (KD) were calculated from the ratio kd/kₐ.

[9] = target: T2, Histidine-tagged human Siglec-9 …; assay: BLI ForteBio Octet RED96, mAb on AMC tips, His-tagged Siglec-9 3.13-50 nM; assay 1; column head prints nM but kd/ka gives M
Procedure: as §3

[10] = target: T2, Histidine-tagged human Siglec-9 …; assay: BLI ForteBio Octet RED96, mAb on AMC tips, His-tagged Siglec-9 3.13-50 nM; assay 2; column head prints nM but kd/ka gives M
Procedure: as §3

[11] = target: T2, Histidine-tagged human Siglec-9 …; assay: SPR Biacore T200, 25 C, 25 nM mAb captured on anti-mouse IgG CM5 chip, His-tagged Siglec-9 200 nM as analyte, single-concentration 1:1 fit

T1 sequence (Q9Y336 18-463): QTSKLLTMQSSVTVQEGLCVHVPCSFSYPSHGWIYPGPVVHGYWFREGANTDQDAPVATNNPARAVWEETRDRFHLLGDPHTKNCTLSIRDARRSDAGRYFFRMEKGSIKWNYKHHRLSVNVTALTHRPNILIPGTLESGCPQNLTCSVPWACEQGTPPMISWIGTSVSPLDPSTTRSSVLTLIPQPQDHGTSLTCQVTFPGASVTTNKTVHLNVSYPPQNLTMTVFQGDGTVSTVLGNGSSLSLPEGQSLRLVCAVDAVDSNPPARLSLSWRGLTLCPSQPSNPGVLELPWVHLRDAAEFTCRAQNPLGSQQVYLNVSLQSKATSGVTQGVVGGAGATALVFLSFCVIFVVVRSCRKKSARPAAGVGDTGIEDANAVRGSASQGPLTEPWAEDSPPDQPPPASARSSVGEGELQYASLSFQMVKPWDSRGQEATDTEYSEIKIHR
T3 sequence (Q9Y336 18-348 limits assumed): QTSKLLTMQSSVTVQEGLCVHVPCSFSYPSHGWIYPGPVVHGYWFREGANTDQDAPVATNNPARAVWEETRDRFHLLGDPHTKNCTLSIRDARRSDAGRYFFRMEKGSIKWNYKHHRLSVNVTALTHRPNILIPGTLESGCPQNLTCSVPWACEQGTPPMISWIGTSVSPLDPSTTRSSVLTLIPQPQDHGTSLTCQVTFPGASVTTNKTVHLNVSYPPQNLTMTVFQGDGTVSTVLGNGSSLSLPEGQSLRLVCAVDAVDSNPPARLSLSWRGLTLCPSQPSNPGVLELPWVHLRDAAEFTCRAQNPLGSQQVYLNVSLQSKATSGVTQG
T2 sequence (Q9Y336 18-348 limits assumed): as above

| Percent Siglec-9 Surface Expression, DCs (% Siglec-9) [1] [%] | Percent Siglec-9 Surface Expression, Monocytes (% Siglec-9) [1] [%] | Percent Siglec-9 Surface Expression, THP-1 cells (% Siglec-9) [1] [%] | Percent Siglec-9 Surface Expression, Macrophages (% Siglec-9) [2] [%] | Percent Siglec-9 Surface Expression, Microglia (% Siglec-9) [2] [%] | % Positive [3] [%] | MFI [3] | % Positive [4] [%] | MFI [4] | % Positive [5] [%] | MFI [5] | Kd [6] [nM] | Percent Siglec-9-Fc Binding [7] [%] | Kd [8] [nM] | Kd [9] [nM] | Kd [10] [nM] | Kd [11] [nM] | Binder |
| --- | --- | --- | --- | --- | --- | --- | --- | --- | --- | --- | --- | --- | --- | --- | --- | --- | --- |
| 94.3 | 84.4 | 81.1 | 94.6 | 90.6 | 9.1 | 145 | 93.2 | 692 | 34.2 | 252 | 5.1 | 97.8 | – | – | – | – | anti-Siglec-9 antibody 2D5 (antibody, IgG1, V domains shown) VH: QVQLQQSGPELVKPGASVKISCKASGYAFSSYWMNWVKQRPGKGLEWIGRIYPRDGDTNYNGKFKGKATLTADKSSSTAYMQLSSLTSEDSAVYFCARWLLRFAYWGQGTLVTVSA VL: not shown |
| – | – | – | – | – | – | – | – | – | – | – | – | – | 0.76 | 0.639 | 0.879 | – | anti-Siglec-9 antibody 12B12 (antibody, V domains shown, Murine antibody; also called S9-12B12; S9-12B12.2) VH: EVQLVESGGGLVQPGGSLKLSCAASGFTFSNYGMSWVRQILDKRLELVATINSNGGRTYYPDSVKGRFTISRDNAKNTLYLQMSSLRSEDTAIYYCVTYYRYDSYAMDYWGQGTSVTVSS VL: DIVLTQSPASLAVSLGQRATISCRASENVDSYGISFMHWYQQKPGQPPKLLIYRASNLESGIPARFSGSGSRTDFTLTINPVEADDVATYYCQQSNEDPWTFGGGTKLEIK |
| 66.2 | 48.4 | 68.9 | 34.2 | 54.7 | 38.3 | 216 | 94.8 | 467 | 60.5 | 331 | – | 97.8 | – | – | – | 9 | anti-Siglec-9 antibody 7H12 (antibody, V domains shown, the asterisk is not explained; the printed VL holds a 'Z' at position 3) VH: QVQLQQSGAEVVKPGASVKLSCKAFGYTFTSYWMHWVKQRPGQGLEWIGEINPRDGVSNCNEKFTSKATLTVDTSSNTAYMQLNNLTSEDSAVYYCTIWEDYFDYWGQGTTLTVST VL: NVZMTQTPLTLSVTLGQPASISCKSSQSLLYTNGKTYLNWLLQRPGQSPKLLIYLVSKLESGVPDRFSGSGSGTDFTLKINRVEAEDLGVYFCLQAPHFPLTFGGGTKLEMK |
| 39.2 | 31.2 | 61.6 | 24.8 | 27.5 | 75.9 | 310 | 98.7 | 621 | 97.8 | 646 | 2.7 | 97.8 | – | – | – | – | anti-Siglec-9 antibody 5B1 (antibody, IgG1, V domains shown) VH: QVQLQQSGAEVVKPGASVKLSCKAFGYTFTSYWMHWVKQRPGQGLEWIGEINPRDGVSNCNEKFTSKATLTVDTSSNTAYMQLNNLTSEDSAVYYCTIWEDYFDYWGQGTTLTVST VL: NVVMTQTPLTLSVTLGQPASISCKSSQSLLYTNGKTYLNWLLQRPGQSPKLLIYLVSKLESGVPDRFSGSGSGTDFTLKINRVEAEDLGVYYCLQATHFPLTFGAGTKLELK |
| – | – | – | – | – | – | – | – | – | – | – | – | – | 0.54 | 0.532 | 0.557 | – | anti-Siglec-9 antibody 5C6 (antibody, V domains shown, Murine antibody; also called S9-5C6; S9-5C6.3) VH: EVQLQQSGPELVKPGASVRISCKASGYTFTDYNIHWVKQSQGKSLEWIGYIYPYNGDTGYNQKFQNKATLTVDNSSSTAYMELRSLTSEDSAVYYCANGNYLYYYAMDYWGQGTSVTVSS VL: DVVMTQTPLSLPVSLGDQVSISCSSSQSLVHSNGNTYLHWYLQKSGQSPKLLIYKVSNRFSGVPDRFRGSGSGTDFTLKISRVEAEDLGVYFCSQNTHVPLTFGAGTKLELK |
